Measurements published in IntAct's records for PubMed 35512704.

B1: Speckle-type POZ protein (Homo sapiens), O43791 (parent)
chain: MSRVPSPPPPAEMSSGPVAESWCYTQIKVVKFSYMWTINNFSFCREEMGEVIKSSTFSSGANDKLKWCLRVNPKGLDEESKDYLSLYLLLVSCPKSEVRAKFKFSILNAKGEETKAMESQRAYRFVQGKDWGFKKFIRRDFLLDEANGLLPDDKLTLFCEVSVVQDSVNISGQNTMNMVKVPECRLADELGGLWENSRFTDCCLCVAGQEFQAHKAILAARSPVFSAMFEHEMEESKKNRVEINDVEPEVFKEMMCFIYTGKAPNLDKMADDLLAAADKYALERLKVMCEDALCSNLSVENAAEILILADLHSADQLKTQAVDFINYHASDVLETSGWKSMVVSHPHLVAEAYRSLASAQCPFLGPPRKRLKQS
partner: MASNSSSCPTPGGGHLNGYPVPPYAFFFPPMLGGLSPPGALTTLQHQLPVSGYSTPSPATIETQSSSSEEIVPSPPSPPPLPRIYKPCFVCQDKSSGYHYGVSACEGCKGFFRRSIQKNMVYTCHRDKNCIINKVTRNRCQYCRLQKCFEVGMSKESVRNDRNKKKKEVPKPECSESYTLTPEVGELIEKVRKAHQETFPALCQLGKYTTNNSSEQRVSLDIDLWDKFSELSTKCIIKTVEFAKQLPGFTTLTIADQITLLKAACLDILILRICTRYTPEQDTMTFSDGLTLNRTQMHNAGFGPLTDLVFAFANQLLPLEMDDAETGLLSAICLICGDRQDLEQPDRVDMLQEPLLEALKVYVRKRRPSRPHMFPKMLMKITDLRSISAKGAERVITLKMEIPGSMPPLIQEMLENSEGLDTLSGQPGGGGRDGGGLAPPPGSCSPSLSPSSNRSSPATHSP
B2: Speckle-type POZ protein (Homo sapiens), O43791 (parent)
chain: B1 chain
partner: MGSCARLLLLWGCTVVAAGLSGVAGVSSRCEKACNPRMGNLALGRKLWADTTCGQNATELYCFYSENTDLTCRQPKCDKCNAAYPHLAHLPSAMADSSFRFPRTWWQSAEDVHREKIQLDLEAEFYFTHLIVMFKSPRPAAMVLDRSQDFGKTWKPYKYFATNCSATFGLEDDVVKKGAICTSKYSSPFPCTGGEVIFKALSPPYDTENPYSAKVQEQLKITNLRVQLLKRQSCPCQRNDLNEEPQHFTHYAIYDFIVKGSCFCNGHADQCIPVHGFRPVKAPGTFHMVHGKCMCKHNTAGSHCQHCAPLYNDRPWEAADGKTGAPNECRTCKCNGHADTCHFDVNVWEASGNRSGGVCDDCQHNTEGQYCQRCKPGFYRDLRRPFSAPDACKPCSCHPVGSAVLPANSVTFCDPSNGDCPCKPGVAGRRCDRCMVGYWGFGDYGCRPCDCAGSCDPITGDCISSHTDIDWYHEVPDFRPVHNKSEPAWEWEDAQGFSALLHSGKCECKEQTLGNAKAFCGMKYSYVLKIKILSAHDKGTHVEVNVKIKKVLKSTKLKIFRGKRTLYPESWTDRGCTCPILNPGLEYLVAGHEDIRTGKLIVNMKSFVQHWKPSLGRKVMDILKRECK
B3: Speckle-type POZ protein (Homo sapiens), O43791 (parent)
chain: B1 chain
partner: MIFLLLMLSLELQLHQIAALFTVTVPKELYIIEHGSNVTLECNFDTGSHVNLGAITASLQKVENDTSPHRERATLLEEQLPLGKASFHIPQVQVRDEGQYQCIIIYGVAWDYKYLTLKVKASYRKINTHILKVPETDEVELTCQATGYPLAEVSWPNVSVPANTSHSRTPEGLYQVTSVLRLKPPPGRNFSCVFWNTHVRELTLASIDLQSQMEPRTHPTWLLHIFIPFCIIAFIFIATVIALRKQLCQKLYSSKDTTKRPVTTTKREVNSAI
B4: Speckle-type POZ protein (Homo sapiens), O43791 (parent)
chain: B1 chain
partner: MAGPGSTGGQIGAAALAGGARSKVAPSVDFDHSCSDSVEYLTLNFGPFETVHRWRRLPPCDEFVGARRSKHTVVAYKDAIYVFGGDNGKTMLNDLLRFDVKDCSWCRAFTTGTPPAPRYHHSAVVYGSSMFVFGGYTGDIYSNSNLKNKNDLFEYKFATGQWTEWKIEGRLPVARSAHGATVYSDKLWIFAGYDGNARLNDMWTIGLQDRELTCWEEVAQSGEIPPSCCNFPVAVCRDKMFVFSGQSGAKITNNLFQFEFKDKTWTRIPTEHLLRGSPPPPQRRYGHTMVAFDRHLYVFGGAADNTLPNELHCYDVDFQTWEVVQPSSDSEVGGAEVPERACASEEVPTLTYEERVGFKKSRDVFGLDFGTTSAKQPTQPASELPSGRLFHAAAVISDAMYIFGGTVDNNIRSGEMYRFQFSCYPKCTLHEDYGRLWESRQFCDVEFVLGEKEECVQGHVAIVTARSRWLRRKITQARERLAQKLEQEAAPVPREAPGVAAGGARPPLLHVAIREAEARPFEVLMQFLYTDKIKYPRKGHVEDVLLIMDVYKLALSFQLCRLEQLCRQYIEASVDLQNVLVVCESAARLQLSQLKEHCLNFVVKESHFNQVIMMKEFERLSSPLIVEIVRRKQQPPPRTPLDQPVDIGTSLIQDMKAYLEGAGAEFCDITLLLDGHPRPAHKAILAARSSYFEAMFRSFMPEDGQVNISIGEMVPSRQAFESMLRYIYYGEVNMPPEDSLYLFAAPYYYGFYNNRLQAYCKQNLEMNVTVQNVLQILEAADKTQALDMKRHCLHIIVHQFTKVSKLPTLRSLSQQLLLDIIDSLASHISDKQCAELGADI
B5: Speckle-type POZ protein (Homo sapiens), O43791 (parent)
chain: B1 chain
partner: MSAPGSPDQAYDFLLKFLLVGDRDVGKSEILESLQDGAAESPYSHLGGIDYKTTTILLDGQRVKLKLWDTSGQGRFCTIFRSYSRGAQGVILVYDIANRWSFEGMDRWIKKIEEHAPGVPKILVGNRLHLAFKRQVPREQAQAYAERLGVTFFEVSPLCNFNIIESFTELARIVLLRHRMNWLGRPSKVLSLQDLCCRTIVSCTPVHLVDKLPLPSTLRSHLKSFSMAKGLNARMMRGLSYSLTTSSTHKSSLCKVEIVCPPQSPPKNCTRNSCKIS
B6: Speckle-type POZ protein (Homo sapiens), O43791 (parent)
chain: B1 chain
partner: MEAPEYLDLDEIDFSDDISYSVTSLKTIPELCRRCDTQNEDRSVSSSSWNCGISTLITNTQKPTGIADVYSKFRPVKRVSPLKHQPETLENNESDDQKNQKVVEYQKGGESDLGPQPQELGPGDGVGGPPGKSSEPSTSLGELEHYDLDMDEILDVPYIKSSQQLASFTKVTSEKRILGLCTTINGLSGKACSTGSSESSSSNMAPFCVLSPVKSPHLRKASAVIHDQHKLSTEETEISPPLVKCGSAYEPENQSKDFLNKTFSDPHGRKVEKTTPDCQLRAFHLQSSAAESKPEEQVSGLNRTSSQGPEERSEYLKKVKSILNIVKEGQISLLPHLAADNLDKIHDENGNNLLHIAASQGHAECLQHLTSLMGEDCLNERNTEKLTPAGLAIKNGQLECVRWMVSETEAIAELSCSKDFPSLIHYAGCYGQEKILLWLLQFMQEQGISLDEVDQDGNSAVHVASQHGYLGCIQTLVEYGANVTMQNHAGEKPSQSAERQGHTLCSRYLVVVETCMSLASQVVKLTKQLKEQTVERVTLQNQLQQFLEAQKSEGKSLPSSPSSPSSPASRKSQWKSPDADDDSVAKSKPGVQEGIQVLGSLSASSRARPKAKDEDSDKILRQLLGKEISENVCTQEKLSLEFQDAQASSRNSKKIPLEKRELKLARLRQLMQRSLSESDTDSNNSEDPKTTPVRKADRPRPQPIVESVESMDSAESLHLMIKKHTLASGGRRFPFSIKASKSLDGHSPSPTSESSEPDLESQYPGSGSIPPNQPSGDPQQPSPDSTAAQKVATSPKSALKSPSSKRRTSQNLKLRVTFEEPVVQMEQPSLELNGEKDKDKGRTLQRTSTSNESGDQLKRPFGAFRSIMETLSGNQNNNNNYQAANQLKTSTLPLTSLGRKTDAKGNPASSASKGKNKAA

Variants of: B1
Details: with rara_human RARA

Variant	effect of a mutation on the interaction
F133V	with no effect

Variants of: B1
Details: with rara_human RARA
Remark: another data set of the same source

Variant	effect of a mutation on the interaction
F102C	with no effect

Variants of: B1
Details: with rara_human RARA
Remark: another data set of the same source

Variant	effect of a mutation on the interaction
Y87C	with no effect

Variants of: B2
Details: with net4_human NTN4, Q9HB63

Variant	effect of a mutation on the interaction
F102C	with no effect

Variants of: B2
Details: with net4_human NTN4, Q9HB63
Remark: another data set of the same source

Variant	effect of a mutation on the interaction
Y87C	with no effect

Variants of: B2
Details: with net4_human NTN4, Q9HB63
Remark: another data set of the same source

Variant	effect of a mutation on the interaction
F133L	with no effect

Variants of: B2
Details: with net4_human NTN4, Q9HB63
Remark: another data set of the same source

Variant	effect of a mutation on the interaction
F133V	with no effect

Variants of: B3
Details: with pd1l2_human PDCD1LG2, Q9BQ51

Variant	effect of a mutation on the interaction
F102C	with no effect

Variants of: B3
Details: with pd1l2_human PDCD1LG2, Q9BQ51
Remark: another data set of the same source

Variant	effect of a mutation on the interaction
Y87C	with no effect

Variants of: B3
Details: with pd1l2_human PDCD1LG2, Q9BQ51
Remark: another data set of the same source

Variant	effect of a mutation on the interaction
F133L	with no effect

Variants of: B3
Details: with pd1l2_human PDCD1LG2, Q9BQ51
Remark: another data set of the same source

Variant	effect of a mutation on the interaction
F133V	with no effect

Variants of: B4
Details: with lztr1_human LZTR1, Q8N653

Variant	effect of a mutation on the interaction
Y87C	with no effect

Variants of: B4
Details: with lztr1_human LZTR1, Q8N653
Remark: another data set of the same source

Variant	effect of a mutation on the interaction
F133L	with no effect

Variants of: B4
Details: with lztr1_human LZTR1, Q8N653
Remark: another data set of the same source

Variant	effect of a mutation on the interaction
F133V	with no effect

Variants of: B4
Details: with lztr1_human LZTR1, Q8N653
Remark: another data set of the same source

Variant	effect of a mutation on the interaction
F102C	with no effect

Variants of: B5
Details: with rb40a_human RAB40A

Variant	effect of a mutation on the interaction
F102C	with no effect

Variants of: B5
Details: with rb40a_human RAB40A
Remark: another data set of the same source

Variant	effect of a mutation on the interaction
Y87C	with no effect

Variants of: B5
Details: with rb40a_human RAB40A
Remark: another data set of the same source

Variant	effect of a mutation on the interaction
F133L	with no effect

Variants of: B5
Details: with rb40a_human RAB40A
Remark: another data set of the same source

Variant	effect of a mutation on the interaction
F133V	with no effect

Variants of: B6
Details: with sncap_human SNCAIP

Variant	effect of a mutation on the interaction
F133L	with no effect

Variants of: B6
Details: with sncap_human SNCAIP
Remark: another data set of the same source

Variant	effect of a mutation on the interaction
F133V	with no effect

Variants of: B6
Details: with sncap_human SNCAIP
Remark: another data set of the same source

Variant	effect of a mutation on the interaction
F102C	with no effect

Variants of: B6
Details: with sncap_human SNCAIP
Remark: another data set of the same source

Variant	effect of a mutation on the interaction
Y87C	with no effect
